Measurements published in IntAct's records for PubMed 23737971.

B1: Ras-related protein Rab-6B (Homo sapiens), Q9NRW1 (parent)
chain: MSAGGDFGNPLRKFKLVFLGEQSVGKTSLITRFMYDSFDNTYQATIGIDFLSKTMYLEDRTVRLQLWDTAGQERFRSLIPSYIRDSTVAVVVYDITNLNSFQQTSKWIDDVRTERGSDVIIMLVGNKTDLADKRQITIEEGEQRAKELSVMFIETSAKTGYNVKQLFRRVASALPGMENVQEKSKEGMIDIKLDKPQEPPASEGGCSC
partner: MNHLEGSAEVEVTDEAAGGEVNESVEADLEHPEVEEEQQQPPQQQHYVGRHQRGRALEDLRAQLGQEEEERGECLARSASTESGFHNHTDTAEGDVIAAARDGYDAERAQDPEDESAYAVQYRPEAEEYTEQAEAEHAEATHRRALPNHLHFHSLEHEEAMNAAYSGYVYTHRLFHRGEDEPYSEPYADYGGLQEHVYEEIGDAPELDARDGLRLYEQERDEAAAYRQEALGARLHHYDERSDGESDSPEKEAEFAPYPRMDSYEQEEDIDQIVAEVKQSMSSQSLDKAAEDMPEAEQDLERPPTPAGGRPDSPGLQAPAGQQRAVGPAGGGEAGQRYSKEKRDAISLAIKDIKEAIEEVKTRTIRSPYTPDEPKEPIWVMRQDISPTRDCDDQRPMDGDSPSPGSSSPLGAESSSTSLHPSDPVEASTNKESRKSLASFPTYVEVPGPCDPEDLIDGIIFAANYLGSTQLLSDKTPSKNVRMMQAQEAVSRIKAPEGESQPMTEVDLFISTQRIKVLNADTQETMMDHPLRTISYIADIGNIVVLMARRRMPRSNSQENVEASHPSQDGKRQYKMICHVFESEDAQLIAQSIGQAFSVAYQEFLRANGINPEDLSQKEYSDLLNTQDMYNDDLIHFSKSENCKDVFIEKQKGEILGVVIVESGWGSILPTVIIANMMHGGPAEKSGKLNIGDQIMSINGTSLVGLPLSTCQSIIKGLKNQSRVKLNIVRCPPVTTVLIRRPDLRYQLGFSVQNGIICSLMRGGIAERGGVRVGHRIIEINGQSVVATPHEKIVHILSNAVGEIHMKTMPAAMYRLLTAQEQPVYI
B2: Ras-related protein Rab-6A (Homo sapiens), P20340-1 (parent)
chain: MSTGGDFGNPLRKFKLVFLGEQSVGKTSLITRFMYDSFDNTYQATIGIDFLSKTMYLEDRTVRLQLWDTAGQERFRSLIPSYIRDSTVAVVVYDITNVNSFQQTTKWIDDVRTERGSDVIIMLVGNKTDLADKRQVSIEEGERKAKELNVMFIETSAKAGYNVKQLFRRVAAALPGMESTQDRSREDMIDIKLEKPQEQPVSEGGCSC
partner: B1 partner
B3: Ras-related protein Rab-6A (Homo sapiens), P20340-1 (parent)
chain: B2 chain
partner: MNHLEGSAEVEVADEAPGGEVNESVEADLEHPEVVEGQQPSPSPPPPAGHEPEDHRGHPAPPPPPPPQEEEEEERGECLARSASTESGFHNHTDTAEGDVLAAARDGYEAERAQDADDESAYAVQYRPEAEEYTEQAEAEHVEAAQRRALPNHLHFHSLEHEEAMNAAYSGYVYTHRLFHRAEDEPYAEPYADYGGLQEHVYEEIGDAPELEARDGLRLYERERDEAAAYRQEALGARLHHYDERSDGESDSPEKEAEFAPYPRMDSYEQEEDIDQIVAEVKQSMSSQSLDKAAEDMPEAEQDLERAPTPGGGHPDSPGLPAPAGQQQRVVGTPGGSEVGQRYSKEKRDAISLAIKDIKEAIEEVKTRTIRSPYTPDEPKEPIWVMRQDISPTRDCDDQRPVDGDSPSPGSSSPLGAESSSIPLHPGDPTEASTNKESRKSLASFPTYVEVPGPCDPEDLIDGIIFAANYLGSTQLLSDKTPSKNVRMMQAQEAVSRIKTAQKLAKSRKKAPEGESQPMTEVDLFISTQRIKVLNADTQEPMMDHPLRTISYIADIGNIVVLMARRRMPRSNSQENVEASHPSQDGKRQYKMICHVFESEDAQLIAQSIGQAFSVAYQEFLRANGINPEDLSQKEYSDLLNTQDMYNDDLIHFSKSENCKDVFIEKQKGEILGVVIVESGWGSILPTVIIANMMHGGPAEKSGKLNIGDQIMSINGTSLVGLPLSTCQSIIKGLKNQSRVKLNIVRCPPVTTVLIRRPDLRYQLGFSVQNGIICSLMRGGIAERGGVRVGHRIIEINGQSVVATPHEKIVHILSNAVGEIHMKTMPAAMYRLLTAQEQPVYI

Variants of: B1
Settings: with APBA1, Q02410-2

| effect of a mutation on the interaction | Variant |
| --- | --- |
| disrupting interaction | T27N |

Variants of: B2
Settings: with APBA1, Q02410-2

| effect of a mutation on the interaction | Variant |
| --- | --- |
| disrupting interaction | T27N |

Variants of: B3
Settings: with apba1_mouse Apba1, B2RUJ5

| effect of a mutation on the interaction | Variant |
| --- | --- |
| disrupting interaction | T27N |
